From article PMC7943578

Tests used:
CC-Type2-(LaIdGe)4 [1] = test: AUC; sedimentation velocity with 25% v/v isopropanol, 150 uM peptide, PBS pH 7.4
CC-Type2-(LaIdGe)4 [2] = test: SEC; Superdex75 10/300 GL, 25% v/v IPA in PBS, samples loaded at 150 uM, monitored at 220 nm
CC-Type2-(LaIdGe)4 [3] = test: AUC; sedimentation velocity, 150 uM peptide, 20 C, 50 krpm, PBS pH 7.4; self-association of the peptide
CC-Type2-(LaIdGe)4 [4] = test: AUC; sedimentation equilibrium, 70 uM peptide, 20 C, PBS pH 7.4, single species model; self-association of the peptide
CC-Type2-(LaIdGe)4 [5] = test: AUC; sedimentation equilibrium with 15% v/v isopropanol, 70 uM peptide, PBS pH 7.4, 30-45 krpm, single ideal species fit
CC-Type2-(LaIdGe)4 [6] = test: AUC; sedimentation velocity with DPH, absorbance of DPH at 350 nm; 200 uM peptide, 5 uM DPH, 5% v/v DMSO in PBS pH 7.4, 25 C
[7] = target: CC-Type2-(LaIdGe)4-W19BrPhe; test: crystal structure; vapour diffusion at 19 C; 0.05 M sodium HEPES, 5% w/v PEG 4000, 5% v/v 2-propanol, pH 7; SAD phasing on bromine

stoichiometry N (x monomer mass) (CC-Type2-(LaIdGe)4 [1])	stoichiometry N (CC-Type2-(LaIdGe)4 [2])	stoichiometry N (CC-Type2-(LaIdGe)4 [3])	stoichiometry N (CC-Type2-(LaIdGe)4 [4])	stoichiometry N (x monomer mass) (CC-Type2-(LaIdGe)4 [5])	stoichiometry N (x monomer mass) (CC-Type2-(LaIdGe)4 [6])	stoichiometry N [7]	Substance
5.5	6	6	6	5.7	6.2		CC-Type2-(LaIdGe)4 (peptide)
						6	CC-Type2-(LaIdGe)4-W19BrPhe (peptide)
